“And” between values parts separate entries of the source, which are not always exact repeats. Equal values may be shown once. Read-outs that look alike come from different tables or passages of the source.
Experiments:
AUC [1] = biological target: the molecule itself; test: AUC
AUC [2] = biological target: the molecule itself; test: AUC; remark: listed apart in the source

Ac-IDFISTYITKIDKKIQSIEDIIHQIENKISEIKQLIK-NH2 [γ_(52–88)KI]
stoichiometry N (AUC [1]): ~2 and ~4
Kd (AUC [2]): 4.95 µM
stoichiometry N (AUC [2]): 2 and 4
